One series has as its target Rel A homodimer (UniProt Q04206 Q04206:1-551). Briefly: EMSA. As to conditions: chain copies: 2 (stated); label: 32P. (In EMSA bound probe runs differently from free probe, usually more slowly.)
Series [1] concerns the target T1, NFKB1 (p50) homodimer (UniProt P19838 P19838:1-433). Briefly: EMSA; methylation interference shows contacts to GGGG on both strands. Conditions: chain copies: 2 (stated); label: 32P.
Series [2] deals with T2, NFKB2 (p52) homodimer (UniProt Q00653 Q00653:1-454).
T2 sequence: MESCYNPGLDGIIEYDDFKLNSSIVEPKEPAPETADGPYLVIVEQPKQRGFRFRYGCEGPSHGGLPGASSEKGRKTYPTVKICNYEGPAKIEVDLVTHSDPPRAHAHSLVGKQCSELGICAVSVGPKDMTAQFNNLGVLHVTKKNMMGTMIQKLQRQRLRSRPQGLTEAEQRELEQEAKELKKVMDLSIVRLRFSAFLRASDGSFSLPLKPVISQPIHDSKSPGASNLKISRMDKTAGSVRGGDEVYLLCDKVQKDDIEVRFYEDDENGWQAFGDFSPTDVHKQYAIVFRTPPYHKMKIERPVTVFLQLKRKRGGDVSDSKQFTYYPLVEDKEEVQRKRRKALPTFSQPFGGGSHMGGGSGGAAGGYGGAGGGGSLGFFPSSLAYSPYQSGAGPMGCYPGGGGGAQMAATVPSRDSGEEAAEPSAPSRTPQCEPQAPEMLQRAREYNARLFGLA
Described as above. Conditions: chain copies: 2 (stated); label: 32P.

Series [3] concerns the target T1, NFKB1 (p50) homodimer. Briefly: EMSA; labeled oligonucleotides bound. Conditions: chain copies: 2 (stated); label: 32P.
For series [4], the target named is T2, NFKB2 (p52) homodimer. Briefly: EMSA; labeled oligonucleotides bound. As to conditions: chain copies: 2 (stated); label: 32P.
Series [5] deals with T1, NFKB1 (p50) homodimer. Briefly: EMSA. As to conditions: chain copies: 2 (stated).
For series [6], the target named is T2, NFKB2 (p52) homodimer. Briefly: EMSA. As to conditions: chain copies: 2 (stated).

Here are results for three molecules from US5605821, “Expression control sequences of the P-selectin gene” (Board of Regents of the University of Oklahoma).

T1 sequence (P19838 1-433, one chain of several): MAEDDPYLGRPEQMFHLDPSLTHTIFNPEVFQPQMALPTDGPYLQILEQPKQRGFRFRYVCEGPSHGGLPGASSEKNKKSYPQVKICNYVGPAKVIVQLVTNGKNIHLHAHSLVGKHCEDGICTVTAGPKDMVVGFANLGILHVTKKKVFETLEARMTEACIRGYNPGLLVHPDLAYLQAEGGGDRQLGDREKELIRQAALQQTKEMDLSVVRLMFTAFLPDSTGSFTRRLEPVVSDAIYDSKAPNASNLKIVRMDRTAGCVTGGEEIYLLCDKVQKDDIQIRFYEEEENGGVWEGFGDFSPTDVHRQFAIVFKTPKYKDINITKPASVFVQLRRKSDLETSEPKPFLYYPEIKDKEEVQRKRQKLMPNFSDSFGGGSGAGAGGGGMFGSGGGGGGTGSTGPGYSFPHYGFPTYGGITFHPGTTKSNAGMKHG
Sequence of Rel A homodimer (Q04206 whole entry, one chain of several): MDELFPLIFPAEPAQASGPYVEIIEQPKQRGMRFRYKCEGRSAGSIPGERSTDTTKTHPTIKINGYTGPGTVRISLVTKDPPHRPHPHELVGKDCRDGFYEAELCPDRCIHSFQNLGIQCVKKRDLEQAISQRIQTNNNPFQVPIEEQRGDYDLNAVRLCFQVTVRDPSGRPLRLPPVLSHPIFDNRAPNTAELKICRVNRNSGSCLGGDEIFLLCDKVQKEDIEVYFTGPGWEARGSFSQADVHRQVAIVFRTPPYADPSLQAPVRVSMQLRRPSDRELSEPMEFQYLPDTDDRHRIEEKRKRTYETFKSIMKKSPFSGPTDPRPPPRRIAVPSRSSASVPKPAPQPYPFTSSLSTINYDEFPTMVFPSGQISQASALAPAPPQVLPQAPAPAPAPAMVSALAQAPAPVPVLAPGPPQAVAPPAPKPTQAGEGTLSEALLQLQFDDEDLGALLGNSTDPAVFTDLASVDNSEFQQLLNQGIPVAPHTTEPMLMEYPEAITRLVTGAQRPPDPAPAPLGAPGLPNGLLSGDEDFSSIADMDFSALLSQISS

B1: P-selectin 4642-4664 (dsDNA)
DNA 1: GGAAGGGGGTGACCCCTTGCCTC
DNA 2: GAGGCAAGGGGTCACCCCCTTCC
As for B1, the binding result in the series with Rel A homodimer is listed as “no binding”; in the series with NFKB1 (p50) homodimer [1] it was “binds”; with NFKB2 (p52) homodimer [2] it was “binds”.

B2: P-selectin 4632-4672 (dsDNA)
DNA 1: CATCTTCCATGGAAGGGGGTGACCCCTTGCCTCTTGGCAAC
DNA 2: GTTGCCAAGAGGCAAGGGGTCACCCCCTTCCATGGAAGATG
For B2, the binding result with Rel A homodimer is given as “no binding”; with NFKB1 (p50) homodimer [3], “binds”; with NFKB2 (p52) homodimer [4], “binds”.

B3: P-selectin 4642-4664 ATAG mutant (dsDNA)
DNA 1: GGAAGGGGGTGAATAGTTGCCTC
DNA 2: GAGGCAACTATTCACCCCCTTCC
modifications: [none]
On to B3, for which the binding result with NFKB1 (p50) homodimer [5] and with NFKB2 (p52) homodimer [6] was “no binding” in each case.
